Measurements as given in patent US20110130457A1, “Wax-Based Emulsion for the Treatment of Dry Eye Conditions” (UNIVERSITY OF LOUISVILLE RESEARCH FOUNDATION, INC., priority 2008, published 2011).

Assays:
[1] = Evaporation rates measured in vitro (gravimetric); assay type: physicochemical; conditions: for Influence on the rate of evaporation: concentrations of 50 to 100 mg/mL, at 25 or 34° C.
Protocol: Samples (0.750 mL) for evaporation rate measurements were placed into a plastic container 0.8 cm deep and 1.500 cm inside diameter. Temperature and relative humidity were recorded at the start and end of each experiment. Samples were weighed every minute for 10 minutes using a Mettler-Toledo AT261 analytical balance (Columbus, Ohio). The balance was calibrated and certified by a Mettler technician prior to use. The weights of as many as 7 samples were measured sequentially, i.e., after measuring the weights of sample 1 for ten minutes, the weights of sample 2 were measured for ten minutes, followed by the next sample. The weights of four 10 minute weighing sequences were plotted versus time and the rate of evaporation was calculated from the slope of the data in the plots that were fitted using least squares linear regression analysis. The rate of evaporation at 34° C. was measured using four, 3-minute weighing sequences instead of ten.
The rate of evaporation with 20 standard cubic feet per minute (SCFM) of dry air flowing over the sample at 24° C. was measured. Air was completely dried using a Keaser desiccant dry, model KLDW-10S (Columbus, Ohio) attached to a Purimetrics Compressor, model 750-2 (Edina, Minn.) and a 80 gallon air receiver tank. Complete removal of water vapor from the air was confirmed using an infrared spectrometer. The sample was placed under a flow of dry air for 1 minute and removed from the dry air for two minutes and weighed in a Mettler-Toledo analytical balance. This cycle was repeated ten times. The rate of evaporation in dry air was calculated from the total rate of evaporation minus the contribution of the evaporation in the room air. Evaporation rate was expressed as μm/min, the rate of thickness lost at the surface per minute. Changes in the thickness of the tear film (˜5 μm) due to evaporation can be estimated readily by expressing the evaporation rate in μm/min.

β-lactoglobulin = biological target: T1, β-lactoglobulin (Bos taurus, UniProt P02754); assay: Wax-lactoglobulin binding by intrinsic tryptophan fluorescence intensity and anisotropy
T1 sequence (P02754 17-178): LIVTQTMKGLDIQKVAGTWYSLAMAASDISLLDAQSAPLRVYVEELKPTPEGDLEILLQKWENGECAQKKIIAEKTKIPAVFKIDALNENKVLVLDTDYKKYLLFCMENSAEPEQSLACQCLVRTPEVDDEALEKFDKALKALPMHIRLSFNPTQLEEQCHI
Text: Changes in protein concentration alone are unlikely to affect the rate of evaporation of tears. […] (See Pandit J. C., Nagyova B., Bron A. J., et al, Physical properties of stimulated and unstimulated tears. Exp Eye Res. 1999; 68:247-253.) In this embodiment of the present invention, wax interacted with lactoglobulin. Wax-lactoglobulin binding was quantified by measuring changes in the intrinsic fluorescence intensity of tryptophan. Tryptophan fluorescence is sensitive to local changes in electrostatic fields. Therefore, variations in the local environment/polarity of tryptophan leads to changes in its fluorescence properties as described by Vivian and Callis. Vivian J. T., Callis P. R., Mechanisms of tryptophan fluorescence shifts in proteins, Biophys. J. 2001; 80:2093-2109.) Substrate binding and protein structural changes are commonly measured by observing changes in tryptophan fluorescence intensity, wavelength maximum, band shape, anisotropy, fluorescence lifetimes, and energy transfer.
A wax emulsion that is stable for at least 4 weeks was prepared as described previously by the inventors. […] A quantified amount of wax (0.156 to 1.25 μL/mL) was mixed with 1 mg/mL lactoglobulin in phosphate buffered saline and equilibrated for 12 hours at 34° C. under an atmosphere of argon. […] Emission spectra were measured from 300 to 400 nm with an excitation wavelength of 270 nm. […]

[2] = 50 mg/mL, 24.8° C., relative humidity 40.6%
[3] = 100 mg/mL, 24.8° C., relative humidity 40.6%

Tryptophan anisotropy of lactoglobulin (β-lactoglobulin; with the addition of wax, n=6, 0.138±0.009 with no wax, p=0.04, SEM) | Compound | Rate of Evaporation [1, 2] | Rate of Evaporation [1, 3] | Influence on the rate of evaporation [1] | Fluorescence intensity of the tryptophan residues in lactoglobulin (β-lactoglobulin; as little as 20 nmoles (~0.1 μg) wax added to 1 mg β-lactoglobulin in 1 ml phosphate buffered saline) | Rate of Evaporation ([1]; 100 mg/mL, 34° C.)
 | Lysozyme | 3.0 μm/min | 3.0 μm/min | did not significantly influence the rate of evaporation |  | 
0.115±0.004 | CCCCCCCC/C=C\CCCCCCCC(=O)OCCCCCCCCCCCCCCCC [palmityloleate wax, palmityloleate] |  |  |  | caused a decrease in the fluorescence intensity | 
 | β-Lactoglobulin: model tear protein, used as a model for lipocalin | 3.08 μm/min | 3.12 μm/min | did not significantly influence the rate of evaporation |  | 9.1 μm/min
 | Mucin | 2.9 μm/min | 3.0 μm/min | did not significantly influence the rate of evaporation |  | 
